Tests used:
Assay in all cases: two-hybrid library CCmax;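 note: natural log of median RNA to DNA barcode read ratio; higher means stronger binding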
4H3134-AA = molecular target: T1, 4H3134-AA
T1 chain: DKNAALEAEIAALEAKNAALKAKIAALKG

4H3409-AA = molecular target: T2, 4H3409-AA; settings: mean of both orientations
T2 chain: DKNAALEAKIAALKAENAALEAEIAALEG

4H3625-AA = molecular target: T3, 4H3625-AA; settings: mean of both orientations
T3 chain: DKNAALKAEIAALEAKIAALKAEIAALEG

4H390-AA = molecular target: T4, 4H390-AA; settings: mean of both orientations
T4 chain: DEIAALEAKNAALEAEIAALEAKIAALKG

4H3940-AA = molecular target: T5, 4H3940-AA; settings: mean of both orientations
T5 chain: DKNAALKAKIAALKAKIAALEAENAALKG

4H510-AA = molecular target: T6, 4H510-AA; settings: mean of both orientations
T6 chain: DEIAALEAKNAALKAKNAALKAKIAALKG

4H775-AA = molecular target: T7, 4H775-AA; settings: mean of both orientations
T7 chain: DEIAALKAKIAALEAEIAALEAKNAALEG

4H816-AA = molecular target: T8, 4H816-AA; settings: mean of both orientations
T8 chain: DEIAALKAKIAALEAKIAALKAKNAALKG

4H87-AA = molecular target: T9, 4H87-AA; settings: mean of both orientations
T9 chain: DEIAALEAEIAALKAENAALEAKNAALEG

4H2274-AA = molecular target: T10, 4H2274-AA
T10 chain: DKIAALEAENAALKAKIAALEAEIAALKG

4H2277-AA = molecular target: T11, 4H2277-AA
T11 chain: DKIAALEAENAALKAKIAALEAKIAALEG

4H2330-AA = molecular target: T12, 4H2330-AA; settings: mean of both orientations
T12 chain: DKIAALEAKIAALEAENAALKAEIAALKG

4H2389-AA = molecular target: T13, 4H2389-AA; settings: mean of both orientations
T13 chain: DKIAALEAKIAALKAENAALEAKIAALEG

4H2438-AA = molecular target: T14, 4H2438-AA; settings: mean of both orientations
T14 chain: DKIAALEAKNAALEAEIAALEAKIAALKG

4H2473-AA = molecular target: T15, 4H2473-AA; settings: mean of both orientations
T15 chain: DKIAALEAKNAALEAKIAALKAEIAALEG

4H2649-AA = molecular target: T16, 4H2649-AA; settings: mean of both orientations
T16 chain: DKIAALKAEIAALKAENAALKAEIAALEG

4H2698-AA = molecular target: T17, 4H2698-AA; settings: mean of both orientations
T17 chain: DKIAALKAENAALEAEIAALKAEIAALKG

4H2725-AA = molecular target: T18, 4H2725-AA; settings: mean of both orientations
T18 chain: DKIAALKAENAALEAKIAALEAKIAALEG

4H2865-AA = molecular target: T19, 4H2865-AA; settings: mean of both orientations
T19 chain: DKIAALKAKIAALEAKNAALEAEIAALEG

4H3009-AA = molecular target: T20, 4H3009-AA; settings: mean of both orientations
T20 chain: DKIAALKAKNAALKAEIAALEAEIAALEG

4H3016-AA = molecular target: T21, 4H3016-AA; settings: mean of both orientations
T21 chain: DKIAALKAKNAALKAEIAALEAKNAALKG

4H310-AA = molecular target: T22, 4H310-AA; settings: mean of both orientations
T22 chain: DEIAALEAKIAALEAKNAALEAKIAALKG

4H3120-AA = molecular target: T23, 4H3120-AA; settings: mean of both orientations
T23 chain: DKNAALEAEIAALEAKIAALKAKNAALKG

4H3130-AA = molecular target: T24, 4H3130-AA; settings: mean of both orientations
T24 chain: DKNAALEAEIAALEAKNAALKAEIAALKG

4H3165-AA = molecular target: T25, 4H3165-AA; settings: mean of both orientations
T25 chain: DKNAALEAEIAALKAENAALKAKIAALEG

4H3381-AA = molecular target: T26, 4H3381-AA; settings: mean of both orientations
T26 chain: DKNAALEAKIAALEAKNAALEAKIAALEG

4H3395-AA = molecular target: T27, 4H3395-AA; settings: mean of both orientations
T27 chain: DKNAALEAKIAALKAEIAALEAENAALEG

4H3410-AA = molecular target: T28, 4H3410-AA; settings: mean of both orientations
T28 chain: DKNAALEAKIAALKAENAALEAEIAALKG

4H3590-AA = molecular target: T29, 4H3590-AA; settings: mean of both orientations
T29 chain: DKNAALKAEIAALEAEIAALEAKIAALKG

4H3697-AA = molecular target: T30, 4H3697-AA; settings: mean of both orientations
T30 chain: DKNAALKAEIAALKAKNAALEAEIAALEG

4H3753-AA = molecular target: T31, 4H3753-AA; settings: mean of both orientations
T31 chain: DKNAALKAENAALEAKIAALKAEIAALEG

4H3865-AA = molecular target: T32, 4H3865-AA; settings: mean of both orientations
T32 chain: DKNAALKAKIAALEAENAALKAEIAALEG

4H458-AA = molecular target: T33, 4H458-AA; settings: mean of both orientations
T33 chain: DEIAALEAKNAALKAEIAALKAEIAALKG

4H485-AA = molecular target: T34, 4H485-AA; settings: mean of both orientations
T34 chain: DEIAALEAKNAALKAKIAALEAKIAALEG

4H536-AA = molecular target: T35, 4H536-AA; settings: mean of both orientations
T35 chain: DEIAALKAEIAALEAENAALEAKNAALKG

4H570-AA = molecular target: T36, 4H570-AA; settings: mean of both orientations
T36 chain: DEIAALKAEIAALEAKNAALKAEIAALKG

4H629-AA = molecular target: T37, 4H629-AA; settings: mean of both orientations
T37 chain: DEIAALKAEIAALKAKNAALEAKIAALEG

4H710-AA = molecular target: T38, 4H710-AA; settings: mean of both orientations
T38 chain: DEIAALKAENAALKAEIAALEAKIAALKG

4H745-AA = molecular target: T39, 4H745-AA; settings: mean of both orientations
T39 chain: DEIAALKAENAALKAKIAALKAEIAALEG

4H797-AA = molecular target: T40, 4H797-AA; settings: mean of both orientations
T40 chain: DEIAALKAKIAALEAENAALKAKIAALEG

4H850-AA = molecular target: T41, 4H850-AA; settings: mean of both orientations
T41 chain: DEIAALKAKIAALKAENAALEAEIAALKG

4H891-AA = molecular target: T42, 4H891-AA; settings: mean of both orientations
T42 chain: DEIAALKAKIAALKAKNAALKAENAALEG

4H909-AA = molecular target: T43, 4H909-AA; settings: mean of both orientations
T43 chain: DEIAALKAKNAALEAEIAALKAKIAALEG

4H930-AA = molecular target: T44, 4H930-AA; settings: mean of both orientations
T44 chain: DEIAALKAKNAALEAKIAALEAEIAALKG

4H94-AA = molecular target: T45, 4H94-AA; settings: mean of both orientations
T45 chain: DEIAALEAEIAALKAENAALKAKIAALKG

Binder: DKNAALEAEIAALEAKNAALKAKIAALKG [4H3134-AA]
- interaction score (4H3134-AA): -0.475
- interaction score (4H3409-AA): 1.96
- interaction score (4H3625-AA): -0.878
- interaction score (4H390-AA): -0.0241
- interaction score (4H3940-AA): -1.19
- interaction score (4H510-AA): -2.21
- interaction score (4H775-AA): -0.634
- interaction score (4H816-AA): -0.115
- interaction score (4H87-AA): -0.703

Binder: DKIAALEAENAALKAKIAALEAEIAALKG [4H2274-AA]
- interaction score (4H2274-AA): 2.45
- interaction score (4H2277-AA): 0.21
- interaction score (4H2330-AA): -1.13
- interaction score (4H2389-AA): -0.987
- interaction score (4H2438-AA): 0.189
- interaction score (4H2473-AA): -0.485
- interaction score (4H2649-AA): -1.69
- interaction score (4H2698-AA): 0.894
- interaction score (4H2725-AA): 0.181
- interaction score (4H2865-AA): -1.31
- interaction score (4H3009-AA): 0.108
- interaction score (4H3016-AA): -1.01
- interaction score (4H310-AA): -1.25
- interaction score (4H3120-AA): -1.33
- interaction score (4H3130-AA): -1.87
- interaction score (4H3165-AA): -1.19
- interaction score (4H3381-AA): -1.35
- interaction score (4H3395-AA): -1.6
- interaction score (4H3410-AA): -1.36
- interaction score (4H3590-AA): -0.977
- interaction score (4H3697-AA): -1.45
- interaction score (4H3753-AA): -1.17
- interaction score (4H3865-AA): -0.926
- interaction score (4H458-AA): 0.0218
- interaction score (4H485-AA): -0.34
- interaction score (4H536-AA): -1.54
- interaction score (4H570-AA): -1.8
- interaction score (4H629-AA): -1.47
- interaction score (4H710-AA): 0.53
- interaction score (4H745-AA): 0.497
- interaction score (4H797-AA): -1.27
- interaction score (4H850-AA): -1.39
- interaction score (4H891-AA): -1.73
- interaction score (4H909-AA): -1.73
- interaction score (4H930-AA): -1.05
- interaction score (4H94-AA): -1.32

Source: PMC10397247
